Data published in patent US5424205A, “Amyloidin protease and uses thereof” (Athena Neurosciences, Inc., priority 1993, dated 1995).
Entries after “also recorded” stand apart in the source; their conditions may differ. Residues, ends and D or L forms follow the SMILES beside them.

T1: clipsin/RMCP I (Rattus norvegicus, UniProt P09650)
T1 sequence (P09650 21-260): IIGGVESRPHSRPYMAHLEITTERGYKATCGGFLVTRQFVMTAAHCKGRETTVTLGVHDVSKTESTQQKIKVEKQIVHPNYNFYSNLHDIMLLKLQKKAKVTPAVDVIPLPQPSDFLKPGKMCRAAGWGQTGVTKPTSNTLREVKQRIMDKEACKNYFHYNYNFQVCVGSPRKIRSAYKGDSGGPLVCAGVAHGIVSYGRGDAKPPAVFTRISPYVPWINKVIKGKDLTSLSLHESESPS

B1: α1-ACT: general plasma serine proteinase inhibitor (protein, UniProt P01011 24-423, looked up)
Alpha-1-antichymotrypsin: HPNSPLDEENLTQENQDRGTHVDLGLASANVDFAFSLYKQLVLKAPDKNVIFSPLSISTALAFLSLGAHNTTLTEILKGLKFNLTETSEAEIHQSFQHLLRTLNQSSDELQLSMGNAMFVKEQLSLLDRFTEDAKRLYGSEAFATDFQDSAAAKKLINDYVKNGTRGKITDLIKDLDSQTMMVLVNYIFFKAKWEMPFDPQDTHQSRFYLSKKKWVMVPMMSLHHLTIPYFRDEELSCTVVELKYTGNASALFILPDQDKMEEVEAMLLPETLKRWRDSLEFREIGELYLPKFSISRDYNLNDILLQLGIEEAFTSKADLSGITGARNLAVSQVVHKAVLDVFEEGTEASAATAVKITLLSALVETRTIVRFNRPFLMIIVPTDTQNIFFMSKVTNPKQA

Key:
amyloidin [1] = molecular target: T2, amyloidin (Homo sapiens, UniProt P52888); test: Cleavage of APP592-601 and its analogs by amyloidin (subsite requirements); format: biochemical; settings: pH 7.5, CaCl2, 37° C., 60 min; RP-HPLC
T2 construct: from tissue; a purification from blood is also described
T2 sequence (P52888 whole entry): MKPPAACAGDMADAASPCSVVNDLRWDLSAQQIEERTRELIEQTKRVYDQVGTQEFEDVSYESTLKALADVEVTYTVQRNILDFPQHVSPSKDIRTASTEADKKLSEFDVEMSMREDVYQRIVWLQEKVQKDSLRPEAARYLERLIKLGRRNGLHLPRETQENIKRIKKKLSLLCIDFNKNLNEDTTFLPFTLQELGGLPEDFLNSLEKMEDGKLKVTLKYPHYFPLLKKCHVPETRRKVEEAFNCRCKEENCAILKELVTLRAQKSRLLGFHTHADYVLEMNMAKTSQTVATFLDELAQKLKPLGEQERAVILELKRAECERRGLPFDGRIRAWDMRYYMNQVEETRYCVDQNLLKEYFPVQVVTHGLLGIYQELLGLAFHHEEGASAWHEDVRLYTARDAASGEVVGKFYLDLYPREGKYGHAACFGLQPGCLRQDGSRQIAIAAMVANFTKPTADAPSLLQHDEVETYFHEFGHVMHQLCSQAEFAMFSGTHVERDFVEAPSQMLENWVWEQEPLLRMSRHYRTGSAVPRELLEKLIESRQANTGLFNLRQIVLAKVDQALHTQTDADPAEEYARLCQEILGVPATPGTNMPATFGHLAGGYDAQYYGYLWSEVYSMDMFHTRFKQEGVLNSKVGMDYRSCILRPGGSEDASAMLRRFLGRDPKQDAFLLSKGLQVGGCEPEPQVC
Protocol: (§1) Routinely, 25 ul of enzyme solution were mixed with 10 ul of 1M Tris, pH 7.5, 5 ul 10 mM CaCl2, and 10 ul of a 2 mg/ml Stock solution of APP592-601 in water, or 20 mM Tris, pH 7.5, 0.15M NaCl, in 1.5 ml polypropylene microfuge tubes. The reaction mixtures were incubated for 60 min at 37° C. in a water bath, then quenched with 450 ul ice-cold ethanol, and incubated on ice for a further 20 min. They were centrifuged at 15,000×g for 10 min, and the supernatants transferred to new polypropylene tubes and dried under vacuum. The residue was dissolved in 0.5 ml water, centrifuged at 15,000×g for 5 min, and 200 ul of the supernatant injected onto a 0.46×30 cm Vydac C18 column equilibrated with 0.1% trifluoroacetic acid in water, at 1 ml/min. The column was immediately eluted with a linear gradient to 40% acetronitrile in 0.1% trifluoroacetic acid in water, over 20 minutes. The elution was monitored at 220 nm, and peaks were individually collected, hydrolyzed in 6N HCl at […] for 2 hr, then subjected to quantitative amino-acid analysis in an Applied Biosystems amino-acid analyzer. Once identified, times of elution were used to identify cleavage patterns.
In order to test the subsite requirements of amyloidin in the APP592-601 cleavage assay, analogs of this peptide substrate were synthesized.
Following synthesis and purification, the peptides were then incubated with amyloidin under conditions identical to those developed with APP592-601. The underlined residues designated changes from the native peptide sequence while the arrows indicate peptide cleavage sites. [drawing 5]

[2] = tested on: extracts of mammalian tissues; test: Cleavage of amyloid-like substrate by soluble tissue extracts; format: biochemical; settings: low-ionic strength extract; 0.1 to 10 mM Ca++; pH 6.5 to 8
Protocol: To isolate the amyloid protease activities of the present invention, extracts of mammalian tissues were made in a variety of aqueous buffers, such as, for example, Tris, phosphate and HEPES, of about 20-50 mM pH 7.5, at 4°-8° C., using conventional homogenation procedures, such as, for example, Waring blender or Teflon homogenizer, followed by repeated centrifugation at 10,000-15,000×g. The supernatant soluble fraction from this stage ("low ionic strength") are decanted and the pellet is further extracted with high ionic strength salt, for example 1M NaCl, and a detergent, such as 1% Triton X-100. If, however, the amyloidin proteases are to be isolated from mammalian cells such as erythrocytes, conventional cell disruption techniques may be employed. Such techniques include homogenization, sonication, osmotic lysis and pressure cycling. Prior to disruption, the cells may be first concentrated by filtration, centrifugation, or other conventional methods.
The various extracts are generally incubated with the amyloid-like substrates under a variety of conditions. […]
Aliquots of the sample are analyzed by injection onto a C18 reversed-phase HPLC column and elution with a 0-60% gradient of 0.1% TFA/acetonitrile, to assess the degradation of the substrate. […] Little peptide cleavage activity was detected under other extraction conditions, for example, with high salt or detergents. […]

human skin chymase (HSC) [3] = test: Cleavage of APP592-601 by human skin chymase; format: biochemical; settings: 200 ng enzyme; standard peptide cleavage assay
Protocol: as §1

clipsin/RMCP I = molecular target: T1, clipsin/RMCP I; test: Cleavage of APP592-601 by clipsin/RMCP I; format: biochemical; settings: standard peptide cleavage assay
Protocol: as §1
The procedure to isolate RMCP I was adapted exactly from that described by Nelson & Siman (1990), supra. […]

RMCP I [4] = test: Inhibition of RMCP I, APP592-601 cleaving activity; format: biochemical, rat; settings: pre-treatment with 200 ng
RMCP I [5] = test: Inhibition of RMCP I, Suc-Ala-Ala-Pro-Phe-pNA hydrolysing activity; format: biochemical, rat; settings: pre-treatment with 200 ng
RMCP I [6] = settings: known before; listed as α1 -antichymotrypsin; cited from earlier work
human skin chymase (HSC) [7] = settings: known before; cited from earlier work
brain protease = settings: Abraham et al; cited from earlier work
amyloidin [8] = molecular target: T2, amyloidin; test: Inhibition of amyloidin by various inhibitors (APP592-601 peptide cleavage); format: biochemical

Molecule	site of cleavage by amyloidin (amyloidin [1])	major sites of cleavage by crude tissue extract [2]	site of cleavage of APP592-601 by human skin chymase (human skin chymase (HSC) [3])	site of cleavage of APP592-601 by clipsin/RMCP I (clipsin/RMCP I)	inhibition of APP592-601 cleaving protease activity (RMCP I [4])	inhibition of Suc-Ala-Ala-Pro-Phe-pNA hydrolysing activity (RMCP I [5])	inhibition of RMCP I, as known (RMCP I [6])	inhibition of HSC, as known (human skin chymase (HSC) [7])	inhibition of peptide cleavage by brain protease (brain protease)	% Control Activity (amyloidin [8]; assay conc. 30 ug/ml, 30 min pre-incubation, room temperature) [%]	inhibitory effect on amyloidin (amyloidin [8]; in words)
CSCC[C@H](NC(=O)[C@H](CCCCN)NC(=O)[C@@H](NC(=O)[C@H](CCC(=O)O)NC(=O)[C@H](CO)NC(C)=O)C(C)C)C(=O)N[C@@H](CC(=O)O)C(=O)N[C@@H](C)C(=O)N[C@@H](CCC(=O)O)C(=O)N[C@@H](Cc1ccccc1)C(=O)N[C@@H](CCCNC(=N)N)C(=O)O [APP592-601] (Ac-SEVKMDAEFR-OH)	three-site cleavage	between the Met-Asp, the Asp-Ala, and the Ala-Glu bonds	cleavage at the Met-Asp bond; also recorded: all three proteases cleaved the APP592-601 peptide at the Met-Asp bond	cleavage at the Met-Asp bond; also recorded: selectively cleaves the amyloid substrate APP592-601 at the Met-Asp peptide bond; also recorded: all three proteases cleaved the APP592-601 peptide at the Met-Asp bond	–	–	–	–	–	–	–
B1	–	–	–	–	completely inhibited	completely eliminated	strong inhibitor of RMCP I; also recorded: inhibitable	inhibitable	inhibited	121	Neither α-1-proteinase inhibitor or α-1-antichymotrypsin, two general plasma serine proteinase inhibitors, had any inhibitory effect
